The data set concerns the target T1, R5 peptide.
T1 chain: SSKKSGSYSGSKGSKRRIL

B1: N-myrisotyltransferase 1 (NMT1) (protein)
chain: MADESETAVKPPAPPLPQMMEGNGNGHEHCSDCENEEDNSYNRGGLSPANDTGAKKKKKKQKKKKEKGSETDSAQDQPVKMNSLPAERIQEIQKAIELFSVGQGPAKTMEEASKRSYQFWDTQPVPKLGEVVNTHGPVEPDKDNIRQEPYTLPQGFTWDALDLGDRGVLKELYTLLNENYVEDDDNMFRFDYSPEFLLWALRPPGWLPQWHCGVRVVSSRKLVGFISAIPANIHIYDTEKKMVEINFLCVHKKLRSKRVAPVLIREITRRVHLEGIFQAVYTAGVVLPKPVGTCRYWHRSLNPRKLIEVKFSHLSRNMTMQRTMKLYRLPETPKTAGLRPMETKDIPVVHQLLTRYLKQFHLTPVMSQEEVEHWFYPQENIIDTFVVENANGEVTDFLSFYTLPSTIMNHPTHKSLKAAYSFYNVHTQTPLLDLMSDALVLAKMKGFDVFNALDLMENKTFLEKLKFGIGDGNLQYYLYNWKCPSMGAEKVGLVLQ
For B1, the “myristoylation of R5 (LC-MS time course)” value was “A time course showing the incorporation of one myristoyl group was determined by LC-MS”.

B2: Thermospermine synthase ACL5 (protein)
chain: MGEAVEVMFGNGFPEIHKATSPTQTLHSNQQDCHWYEETIDDDLKWSFALNSVLHQGTSEYQDIALLDTKRFGKVLVIDGKMQSAERDEFIYHECLIHPALLFHPNPKTVFIMGGGEGSAAREILKHTTIEKVVMCDIDQEVVDFCRRFLTVNSDAFCNKKLELVIKDAKAELEKREEKFDIIVGDLADPVEGGPCYQLYTKSFYQNILKPKLSPNGIFVTQAGPAGIFTHKEVFTSIYNTMKQVFKYVKAYTAHVPSFADTWGWVMASDHEFDVEVDEMDRRIEERVNGELMYLNAPSFVSAATLNKTISLALEKETEVYSEENARFIHGHGVAYRHI
As to B2, the “propylamination of R5 (LC-MS time course)” value is “the incorporation of one thermospermine molecule into R5”.

The values are drawn from patent publication US20180244725.
